ChEMBL document CHEMBL1268867, “ATPases as drug targets: insights from heat shock proteins 70 and 90” (J Med Chem, 2010)

Key:
[1] = test system: Nc1ncnc2c1ncn2[C@@H]1O[C@H](COP(=O)(O)OP(=O)(O)O)[C@@H](O)[C@H]1O; conditions: Saccharomyces cerevisiae
Description: Binding affinity to yeast Hsp90

[2] = Binding affinity to FGFR
[3] = test system: Nc1ncnc2c1ncn2[C@@H]1O[C@H](COP(=O)(O)OP(=O)(O)OP(=O)(O)O)[C@@H](O)[C@H]1O; assay: Binding affinity to CDK2/cyclin E; format: protein-complex assay

ATP-dependent molecular chaperone HSP82 (Saccharomyces cerevisiae S288c), P02829
Km [1]: 150 µM

Nc1ncnc2c1ncn2[C@@H]1O[C@H](COP(=O)(O)OP(=O)(O)OP(=O)(O)O)[C@@H](O)[C@H]1O
Km [2]: 70 µM

Cyclin-dependent kinase 2/cyclin E (Homo sapiens) (from UniProt P24864+P24941+O96020)
Km [3]: 3.6 µM
